B1: HDV Ribozyme (parent)
chain: GGCCGGCAUGGUCCCAGCCUCCUCGCUGGCGCCGGCUGGGCAACAUUCCGAGGGGACCGUCCCCUCGGUAAUGGCGAAUGGGACCCA

Variants of: B1
Experiment: self-cleavage, relative activity (ratio to wild type); higher = more cleavage; co-transcriptional

| Variant | self-cleavage |
| --- | --- |
| GGCCGGCUUGGUCCCAGCCUCCUCGCUGGCGCCGGCUGGGCAACAUUCCGAGGGGACCGUCCCCUCGGUAAUGGCGAAUGCGACCCA | 0.115 |
| GGCCGGCUUGGUCCCAGCCUCCUCGCUGGCGCCGGCUGGGCAACAUUCCGAGGGGACCGUCCCCUCGGGAAUGGCGAAUGGGACCCA | 0.59 |
| GGCCGGCUUGGUCCCAGCCUCCUCGCUGGCGCCGGCUGGGCAACAUACCGAGGGGACCGUCCCCUCGGUAAUGGCGAAUGGGACCCA | 0.767 |
| GGCCGGCAAGGUCCCAGCCUCCUCGCUGGCGCCGGCUGGGCAACGUUCCGAGGGGACCGUCCCCUCGGUAAUGGCGAAUGGGACCCA | 0.733 |
| GGCCGGCAAGGUCCCAGCCUCCUCGCUGGCGCCGGCUGGGCAACUUUCCGAGGGGACCGUCCCCUCGGUAAUGGCGAAUGGGACCCA | 0.719 |
| GGCCGGCAAGGUCCCAGCCUCCUCGCUGGCGCCGGCUGGGCAACCUUCCGAGGGGACCGUCCCCUCGGUAAUGGCGAAUGGGACCCA | 0.723 |
| GGCCGGCUUGGUCCCAGCCUCCUCGCCGGCGCCGGCUGGGCAACAUUCCGAGGGGACCGUCCCCUCGGUAAUGGCGAAUGGGACCCA | 0.196 |
| GGCCGGCUUGGUCCCAGCCUCCUCGCAGGCGCCGGCUGGGCAACAUUCCGAGGGGACCGUCCCCUCGGUAAUGGCGAAUGGGACCCA | 0.578 |
| GGCCGGCUUGGUCCCAGCCUCCUCGCUGGCGCCGGCUGGGCAACACUCCGAGGGGACCGUCCCCUCGGUAAUGGCGAAUGGGACCCA | 0.554 |
| GGCCGGCUUGGUCCCAGCCUCCUCGCUGGCGCCGGCUGGGCAACAAUCCGAGGGGACCGUCCCCUCGGUAAUGGCGAAUGGGACCCA | 0.415 |
| GGCCGGCUUGGUCCCAGCCUCCUCGCUGGCGCCGGCCGGGCAACAUUCCGAGGGGACCGUCCCCUCGGUAAUGGCGAAUGGGACCCA | 0.87 |
| GGCCGGCUUGGUCCCAGCCUCCUCGCUGGCGCCGGCAGGGCAACAUUCCGAGGGGACCGUCCCCUCGGUAAUGGCGAAUGGGACCCA | 0.201 |
| GGCCGGCAAGGUCCCCGCCUCCUCGCUGGCGCCGGCUGGGCAACAUUCCGAGGGGACCGUCCCCUCGGUAAUGGCGAAUGGGACCCA | 0.712 |
| GGCCGGCAAGGUCCCGGCCUCCUCGCUGGCGCCGGCUGGGCAACAUUCCGAGGGGACCGUCCCCUCGGUAAUGGCGAAUGGGACCCA | 1.37 |
| GGCCGGCUUGGGCCCAGCCUCCUCGCUGGCGCCGGCUGGGCAACAUUCCGAGGGGACCGUCCCCUCGGUAAUGGCGAAUGGGACCCA | 0.594 |
| GGCCGGCUUGGACCCAGCCUCCUCGCUGGCGCCGGCUGGGCAACAUUCCGAGGGGACCGUCCCCUCGGUAAUGGCGAAUGGGACCCA | 0.208 |

| Variant | self-cleavage |
| --- | --- |
| GGCCGGCUUGGUCCCAGCCACCUCGCUGGCGCCGGCUGGGCAACAUUCCGAGGGGACCGUCCCCUCGGUAAUGGCGAAUGGGACCCA | 0.166 |
| GGCCGGCUUGGUCCCAGCCCCCUCGCUGGCGCCGGCUGGGCAACAUUCCGAGGGGACCGUCCCCUCGGUAAUGGCGAAUGGGACCCA | 0 |
| GGCCGGCUUGGUCCCAGCCUCCUCGCUGGCGCCGGCUGGGCAACAUUCCGAGGGGACCGGCCCCUCGGUAAUGGCGAAUGGGACCCA | 0.89 |
| GGCCGGCUUGGUCCCAGCCUCCUCGCUGGCGCCGGCUGGGCAACAUUCCGAGGGGACCGCCCCCUCGGUAAUGGCGAAUGGGACCCA | 0.492 |
| GGCCGGCUUGGUCCCAGCCUCCUCGCUGGCGCCGGCUGGGCAACAUUCCGAGGGGACCGUCCCCUCGGUAAUGGCGAAUGGCACCCA | 0.0923 |
| GGCCGGCUUGGUCCCAGCCUCCUCGCUGGCGCCGGCUGGGCAACAUUCCGAGGGGACCGUCCCCUCGGUAAUGGCGAAUGGUACCCA | 0.185 |
| GGCCGGCUUGGUCCCAGCCUCCUCGCUGGCGCCGGCUGGGCAACAUUCCGAGGGGACCGUCCCCUCGGUAACGGCGAAUGGGACCCA | 0.443 |
| GGCCGGCUUGGUCCCAGCCUCCUCGCUGGCGCCGGCUGGGCAACAUUCCGAGGGGACCGUCCCCUCGGUAAGGGCGAAUGGGACCCA | 0.289 |
| GGCCGGCUUGGUCCCAGCCUCCUCGCUGGCGCCGGCUGGGCAACAUUCCGAGGGGACCGUCCCCUCGGUAAAGGCGAAUGGGACCCA | 0.369 |
| GGCCGGCUUGGUCCCAGCCUCCGCGCUGGCGCCGGCUGGGCAACAUUCCGAGGGGACCGUCCCCUCGGUAAUGGCGAAUGGGACCCA | 0.415 |
| GGCCGGCUUGGUCCCAGCCUCCUCGCUGGCGCCGGCUGGGCAACAUUCCGAGGGGACCGUCCCCUCGGUAAUGGCGAACGGGACCCA | 0.177 |
| GGCCGGCAAGGUCCCAGCCUCCUCGCUGGCGCCGGCUGGGCAACAUUCCGGGGGGACCGUCCCCUCGGUAAUGGCGAAUGGGACCCA | 0.59 |
| GGCCGGCAAGGUCCCAGCCUCCUCGCUGGCGCCGGCUGGGCGACAUUCCGAGGGGACCGUCCCCUCGGUAAUGGCGAAUGGGACCCA | 0.361 |
| GGCCGGCAAGGUCCCAGCCUCCUCGCUGGCGCCGGCUGGGCCACAUUCCGAGGGGACCGUCCCCUCGGUAAUGGCGAAUGGGACCCA | 0.252 |
| GGCCGGCUAGGUCCCAGCCUCCUCGCUGGCGCCGGCUGGGCAACAUUCCGAGGGGACCGUCCCCUCGGUAAUGGCGAAUGGGACCCA | 0.63 |
| GGCCGGCUCGGUCCCAGCCUCCUCGCUGGCGCCGGCUGGGCAACAUUCCGAGGGGACCGUCCCCUCGGUAAUGGCGAAUGGGACCCA | 0.906 |
